In patent US20170121416A1 (AbbVie / Abbott, published 2017):
Like-named read-outs stand apart in the source and are kept apart here.

T1: human CD324 on cells (MCF7, BR22, NTX tumor cells, 293-hCD324) (human, UniProt P12830 155-882)
T1 sequence: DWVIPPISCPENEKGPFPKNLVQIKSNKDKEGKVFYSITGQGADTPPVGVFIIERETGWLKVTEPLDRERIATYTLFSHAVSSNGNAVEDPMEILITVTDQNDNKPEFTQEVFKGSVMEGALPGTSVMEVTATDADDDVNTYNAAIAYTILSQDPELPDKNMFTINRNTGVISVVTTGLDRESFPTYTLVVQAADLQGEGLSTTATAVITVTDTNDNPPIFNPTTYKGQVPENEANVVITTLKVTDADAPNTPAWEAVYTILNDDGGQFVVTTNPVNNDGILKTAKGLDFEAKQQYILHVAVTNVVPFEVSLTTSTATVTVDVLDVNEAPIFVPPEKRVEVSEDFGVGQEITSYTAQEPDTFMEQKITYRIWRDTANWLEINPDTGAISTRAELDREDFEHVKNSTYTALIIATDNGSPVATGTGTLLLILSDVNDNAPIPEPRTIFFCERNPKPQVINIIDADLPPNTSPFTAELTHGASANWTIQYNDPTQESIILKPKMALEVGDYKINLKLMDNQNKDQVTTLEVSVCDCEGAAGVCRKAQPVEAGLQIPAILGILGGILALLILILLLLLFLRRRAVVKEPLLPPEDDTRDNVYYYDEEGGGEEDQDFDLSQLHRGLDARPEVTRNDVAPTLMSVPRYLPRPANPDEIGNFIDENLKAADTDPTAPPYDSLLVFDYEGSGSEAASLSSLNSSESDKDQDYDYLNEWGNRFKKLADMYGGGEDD

T2: mouse CD324 (Sino Biologics) (mouse, UniProt P09803 157-709, limits assumed)
T2 construct: bought recombinant protein coated on the ELISA plate; also called murine CD324; mouse homolog
T2 sequence (looked up): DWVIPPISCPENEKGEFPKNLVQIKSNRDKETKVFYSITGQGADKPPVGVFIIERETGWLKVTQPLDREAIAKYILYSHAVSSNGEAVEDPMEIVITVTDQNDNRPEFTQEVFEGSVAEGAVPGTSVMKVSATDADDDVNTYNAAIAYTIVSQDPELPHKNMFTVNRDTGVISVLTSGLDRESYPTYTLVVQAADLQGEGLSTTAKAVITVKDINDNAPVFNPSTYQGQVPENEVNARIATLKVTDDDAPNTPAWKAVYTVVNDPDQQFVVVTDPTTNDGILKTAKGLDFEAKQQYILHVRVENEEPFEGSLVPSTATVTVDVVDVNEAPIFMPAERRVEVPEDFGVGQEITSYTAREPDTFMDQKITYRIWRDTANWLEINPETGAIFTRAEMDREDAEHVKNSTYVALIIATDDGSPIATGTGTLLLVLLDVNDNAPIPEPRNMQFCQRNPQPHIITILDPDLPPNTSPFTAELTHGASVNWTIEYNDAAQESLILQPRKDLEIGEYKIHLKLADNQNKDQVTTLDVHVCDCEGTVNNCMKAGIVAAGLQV

T3: human CD324-His recombinant protein (Sino Biological, Inc.) (human, UniProt P12830 155-709)
T3 construct: bought soluble protein; The antigen of the Biacore experiment is only called human CD324 antigen; also called hCD324-His; human CD324 antigen; not shown: His tag
T3 sequence: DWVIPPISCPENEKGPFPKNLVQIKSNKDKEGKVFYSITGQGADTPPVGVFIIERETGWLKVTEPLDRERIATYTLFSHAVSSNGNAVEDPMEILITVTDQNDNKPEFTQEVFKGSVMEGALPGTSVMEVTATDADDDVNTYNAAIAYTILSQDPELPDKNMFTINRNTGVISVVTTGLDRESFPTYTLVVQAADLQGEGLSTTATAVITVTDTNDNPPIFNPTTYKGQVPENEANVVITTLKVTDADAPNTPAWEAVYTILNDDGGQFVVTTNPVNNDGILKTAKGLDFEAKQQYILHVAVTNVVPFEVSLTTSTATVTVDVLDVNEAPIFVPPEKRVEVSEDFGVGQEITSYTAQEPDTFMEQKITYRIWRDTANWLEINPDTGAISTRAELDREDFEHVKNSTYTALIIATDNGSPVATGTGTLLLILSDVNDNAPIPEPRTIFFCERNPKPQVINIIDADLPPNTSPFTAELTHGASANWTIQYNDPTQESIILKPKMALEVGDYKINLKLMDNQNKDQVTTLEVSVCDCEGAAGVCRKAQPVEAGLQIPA

B1: SC10.17 (antibody, V domains shown)
VH: DVQLVESGGGLVQPGGSRKLSCAASGFTFSSYGMHWVRQAPETGLEWVAYITTRSSTIYYAATVKGRFTISRDNARNTLFLQMTSLRSEDTAMYYCTREPLTGYYAMDYWGQGTSVTVSS
VL: DVLMTQTPLSLPVSLGDQASISCRSSQSIVHSDGNTYLEWYLRKPGQSPRLLIYKVSNRFSGVPDRFSGSGSGTDFTLKISRVEAEDLGVYYCFQGSHAPWTFGGGTKLEIK
notes: murine monoclonal antibody from hybridoma; also called murine SC10.17; mAb SC10.17
B2: SC10.178 (antibody, V domains shown)
VH: QILLVQSGPELKKPGETVKISCKANYTFTDYGMHWVKQAPGKGLKWMGWINPKTGVASYADDFKGRFAFSLETSASTAYLQINNLENEDTSIYFCARFFDYWGQGTTLTVSS
VL: DIVLTQSPLSLLVSLGDQASISCRSSQSLVHSNGNTYLHWYLQKPGQSPNLLIFKVSNRFSGVPDRFSGSGSGTDFTLRISRVEAEDLGVYFCSQTTHVWTFGGGTKLEIK
B3: SC10.75 (antibody, V domains shown)
VH: QVQLKESGPGLVAPSQSLSITCTVTGFSLSRYSVHWIRQPPGKGLEWLGMIWGGGSTDYNSALKSRLSINKDNSKSQVFLKMNSLQTVDTAMYYCARTQFYYGHDGGYAMDYWGQGTSVTVSS
VL: DIVMSQSPSSLAVSVGEKVTMSCKSSQSLLYSNNQKNYLAWYQQKPGQSPKLLIYWASSRESGVPERFTGSGSGTDFTLTISSVKAEDLAVYYCQQYYSSPYTFGGGTKLK
notes: murine mAb; variable regions only
B4: SC10.163 (antibody, V domains shown)
VH: EVQLQQSGPELVKPGDSVKMSCKASGNTVTNYYMDWVKQSHGKSLEWIGYIYANNGGTSYNQKFKGKATLTVDKSSSTAYMEIHSLTSEDSAVYYCAIYYRYEFAYWGQGTLVTVSA
VL: DIVMTQAAFSNPVTLGTSASISCRSSKSLLHSNGITYLYWYLQKPGQSPQLLIYQMSNLASGVPDRFSNSGSGTDFTLRISRVEAEDVGVYYCAQNLELPWTFGGGTKLEIK
B5: SC10.168 (antibody, V domains shown)
VH: SDVQLQESGPGLVKPSQSLSVTCTVTDYSLTSGYYWNWIRQFPGNKLEWMAYIHSSGSTHYNPSLKSRISVTRDTSKNQFFLQLNSVTTEDTATYYCARDGAYYSSWFPYWGQGTLVTVSA
VL: DIVMTQSHKLMSASVGDRVSITCKASQDVGTAVAWYQQKPGRSPKLLIYWASNRHTGVPDRFTGSGSGTDFTLTISNVQSEDLADYFCQQFGSYPYTFGGGTKLEIKR
B6: SC10.35 (antibody, V domains shown)
VH: SDVQLQESGPGLVKPSQSLSLTCTVTDYSITSDYAWNWIRQFPGNNLEWMGNIGYSGDTSYNPSLKSRISITRDTSKNQFFLQLNSVTTEDSATYYCARSSLGPFDYWGQGTALTVSS
VL: QIVLTQSPAIMSASPGERVTLTCSASSSVSSSFLYWYQQKSGSSPKLWIYSTSTLASGVPARFSGSGSGTSYSLTISSMEAEDAASYFCHQWSSYPWTFGGGTKLEIK
B7: SC10.36 (antibody, V domains shown)
VH: QVQLQQSGNELVRPGSAVKISCKASGYAFSSYWMNWVKQRPGQGLEWIGQIYPGDDDSNYNGKFKGKATLTADKSSSSAYMHLSSLTSEDSAVYFCARGFATPTMDYWGQGTSVTVSS
VL: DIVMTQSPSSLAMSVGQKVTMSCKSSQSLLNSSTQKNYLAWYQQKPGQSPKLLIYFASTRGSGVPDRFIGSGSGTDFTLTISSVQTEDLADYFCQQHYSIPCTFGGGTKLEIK
B8: SC10.38 (antibody, V domains shown)
VH: QVQLQQSGAELMKTGASVKISCKATGYTFSSYWIEWVKQRPGHGLEWIGEILPGSGKTNYNENFKGKATFTADTSSNTAYMQLSSLTSEDSVVYYCARRGAYYGNFDYWGQGTTLTVSS
VL: DIQMNQSPSSLSASLGDTITITCHVSQNINVWLTWYQQKPGNIPKLLLYKASNLQTGVPSRFSGSGSGTGFTLTISSLQPEDIATYYCQQGQSYPFTFGSGTK

Assays:
[1] = molecular target: T1, human CD324 on cells (MCF7, BR22, NTX …); assay: cell-based or functional assay
[2] = molecular target: T1, human CD324 on cells (MCF7, BR22, NTX …); assay: cell-based or functional assay; remark: listed apart in the source
[3] = molecular target: T1, human CD324 on cells (MCF7, BR22, NTX …); assay: cell-based or functional assay; remark: listed apart in the source
[4] = molecular target: T1, human CD324 on cells (MCF7, BR22, NTX …); assay: cell-based or functional assay; remark: listed apart in the source
[5] = molecular target: T2, mouse CD324 (Sino Biologics); assay: direct ELISA on plate-coated mouse CD324 (Example 7, paragraph 375; paragraph 370 names ForteBio)
Protocol: To test cross-reactivity a high protein binding 96-well assay plate was coated with 0.5 μg/ml of a mouse CD324 purchased from Sino Biologics. The protein coating of the plate occurred in 100 μl volume per well using a 50 mM Sodium Carbonate buffer (pH9.6) during a 16 hour incubation at 4° C. After washing the coated plate in PBS buffer containing 0.05% Tween20 (PBST) the plate was then clocked washed with PBST and 100 μL/well PBSA containing 10% spent hybridoma supernatant or 1 μg/ml purified monoclonal antibody (as positive control) was added to the plate for the duration of 1 hour at ambient temperature. After washing the plate with PBST, 100 μL per well of PBSA containing a 1:10,000 dilution of goat anti-mouse IgG polyclonal antibody, specific for the Fc portion of Mouse IgG and conjugated to horseradish peroxidase (Jackson Immuno Research), was added to the plate for 30 minutes at ambient temperature. After washing the plate extensively with PBST, 100 μL per well TMB substrate (Thermo Fisher) was added to the wells for 15 minutes. The enzymatic reaction was stopped by adding 100 μL/well 2M sulfuric acid. The absorbance of this colorimetric assay was measured at 450 nm using a Victor plate reader (Perkin Elmer). In this assay a signal above background was indicative of cross-reactivity.

[6] = molecular target: T3, human CD324-His recombinant protein …; assay: SPR (Biacore), concentration series 25, 12.5 and 6.25 nM, 1:1 Langmuir binding model; murine parent antibody
[7] = molecular target: T1, human CD324 on cells (MCF7, BR22, NTX …); assay: cell-based or functional assay; remark: listed apart in the source
[8] = molecular target: T1, human CD324 on cells (MCF7, BR22, NTX …); assay: cell-based or functional assay; remark: listed apart in the source

| Binder | EC50 (MCF7, Fab-saporin killing) [1] [pM] | EC50 (MCF7, Fab-saporin killing) [2] [pM] | Percent live cells remaining at 10pM (MCF7, Fab-saporin) [3] [%] | EC50 of killing of MCF7 cells, Fab-saporin assay [4] [pM] | binding result [5] | Kd [6] [pM] | Normalized RLU at 10pM (MCF7, Fab-saporin) [7] | Normalized RLU at 100pM (MCF7, Fab-saporin) [7] | EC50 (read off the curve) [8] [pM] |
| --- | --- | --- | --- | --- | --- | --- | --- | --- | --- |
| B1 | 0.13 | 1.22 | 32 | 1.2 | no binding | 2000 |  |  |  |
| B2 | 3.1 |  | 68 |  |  |  | 68 | 38.1 |  |
| B3 |  |  | 101 |  | no binding |  | 101 | 98.8 |  |
| B4 |  |  |  |  |  |  | 91.5 | 90.3 |  |
| B5 |  |  |  |  |  |  | 64.8 | 34 |  |
| B6 | 0.71 |  |  |  |  |  | 37.2 | 19.4 | ~0.6 |
| B7 |  |  |  |  |  |  | 40.7 | 21.2 |  |
| B8 |  |  |  |  |  |  | 102 | 106 |  |
